# According to the nanobody polyreactivity screen of Harvey et al. (2022):
# Assay: yeast display, Sf9 membrane polyspecificity reagent, FACS + sequencing; frameworks hold sequencing errors
# In short: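 Nanobodies from a synthetic yeast display library (Saccharomyces cerevisiae BJ5465), induced 36–48 hours with galactose, were stained 1 hour at 4 °C with 10% biotinylated, detergent-solubilized Sf9 membrane reagent, enriched on streptavidin microbeads, then FACS-sorted. Anti-HA (expression) and streptavidin (reagent binding) fluorescence set low and high (top ~1%) gates. Polyreactivity labels come from the gate of origin. Genes were colony-PCR amplified, MiSeq 2 × 250 sequenced and filtered by CDR length.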
row,Sequence,polyreactivity (PSR sort gate)
1,QVQLVQSGGGLVQAGGSLRLSCAAYGSTFVRYVKGWYRQAPGKERELVAAISRRGGSTYYADSVKGRFRISRDNAKNTVFLQMNSLKPEDTAVSYCARTVGYRTLLESDSWGQGTQVTVSS,high polyreactivity
2,QVQLVQSGGGLVQAGGSLRLSCSASGRIFSAYAMGWYRPAPGKERELVAAITWSGANTDYADSVKGRFTMSRDNAKYTVYLQMNSLKPEDTAVYYCNASVGRDSAYDYWGQGTQVTVSS,low polyreactivity
3,QVQLVQSGGVLVQAGGSLRLSCAASGFIFNTYAMGWYRPAPGKERELVAAIDGRGGTTYYADSVKGRFTISRDYAKNTVYLQMHSLKPEDTAVYYCAARYQRLGIRYGYWGQGTQVTVSS,high polyreactivity
4,QVQLVQSGVGLDQAGGSLRLSCAASGSISSQNAMGWYRQAPGKESELVAAISWIGGSTYYADSVKGRFTISRDNAKNTVYLQMNSLKPEDTAVYYCAKDRASGFKYYYWGLGTQVTVSS,low polyreactivity
5,QVQLVQSGVGLVQAGGSLRLSCAASGSIFSYYVMGWYRQAPGKERELVAAISWSGGSTYYADSVKGRFTISRDNAKNTVYLQMNSLKPEDTAVYYCAAGTYPYYWVQGTQVTVSS,low polyreactivity
6,QVQLVQSRGGLVQAGGSLRLSCSASGFIFIYNVMGWYRQAPGKERDMVAAINRGGSTKYADSVKGRFTISRDNAKITVYLQMNSLKPEDSAVYYCAARYDGSRYHYDGYDYWGQGTQVTVSS,low polyreactivity
7,QVQLVQSVGGLVHAGGSLRLSCAASGRTYGVYAMGWYRQAPGKERELVAAITYSGGSTYYADSVKGRFTISRDNAKNTVYLQMNSLKPEDTAVYYCAAETRVGLYYVREVYYWGQGTQVTVSS,low polyreactivity
8,QVQLVVSGGGLVQAGGSLRISCAASGITFGRYAMGRYRPAPGKERELVAAISWSGGSTYYADSVKGRFTISRDNAKNTVFLQMNSLKPEDTAVYYCALEWYYTSYHIRFYRDNYWGQGTQVTVSS,high polyreactivity
9,QVQLVVSGGGLVQAGGSLRLSCAASGIIFVQYTMGWYRQAPGQERELDAAITRGGNTYYADSVKGRFTISRDNAKNTVYLQMNSLKPEATAVYYCNKAYWYANLRYRTGVKLQFYYWGQGTQVNVSS,high polyreactivity
10,QVQLVVSGGGLVQAGGSLRLSCAASGITFFPYAMGWYRQAPGKERLLVASISDRGGTNYADSVKGRFTISRDNAKNTVYLQMNSLKPEDTAVYYSASDASTYAYYGGDYWGQGTQVTVSS,low polyreactivity
11,QVQLVVSGGGLVQAGGSLRLSCAASGITFYEYAMGWYRQAPGKERELVAAISSSGCTTYYADSVKGLFTISRDNAKNTVYLQLNSLKPEDTAVYYCAVGQRFAIWGPQGSYFYFESDYWGQGTQVTVSS,low polyreactivity
12,QVQLVVSGGGLVQAGGSLRLSCAASGRIFLWNAMGWYRQAPGKERDLVAAISSGGGTNYADSVKGRFTISRDNAKNSVYLQMNSLKPEDTAVYYCAARRTYRFGWGQGTQVTVSS,high polyreactivity
13,QVQLVVSGGGLVQAGGSLRLSCAASGSIFVPYAMGWYRQAPGKEREFVAAITRSSGSTYYADSVKGRFTISRDNAKNTVYLQMNSLKPEDTAVYYCAADFLLEFDYWGQGTQVTVSS,low polyreactivity
14,QVQLVVSGGGLVQAGGSLRLSCAASGSIFYRNAMGWYRQAPGKDRELVAAISFSGGSTYYADSVKARFSISRDNAKNTVYLQMNSLKPEDTAVYYCAAEAYPSWFYVITGFGIYDYWGQGTQGTVSS,high polyreactivity
15,QVQLVVSGGGLVQAGGSLRLSWAASGIIFYEYAMGWYRQAPGTERELVAAITWSGRTYADSVKGRFTISRDNAKNTVYLQMNSLKPEDTAVYYCNAVYFGGPFFGQYNYWGQGTQVTVSS,low polyreactivity
16,QVQLVVSGGGLVQEGGSLRLSCAAYGNTFFVYAMGGYRQAPGKERELDASITLSGDTTYYADSVKGRFTISRDNAKNPVYLQMNSLKPEDNAVYYCAAKDIRYDDDYWGQGTQVNVSS,low polyreactivity
17,QVQLVYSGGGLVQAGGSLRLSCAASGIIFGVNAMGWYRQAPGKERELVAAISSSGGSTYYADSVKGRFTISRDNAKNTVYLQMNSLKPEDTAVYYCAASYYHYAPFDYWGQGTQVTVSS,high polyreactivity
18,QVQLVYSGGGLVQAGGSLRLSCAASGSTFYRYAMGWYRQAPGKERELVATITRSGGSTYYADSVKGRFTISRDNAKNTVYLQMNRLKPEDTAVYYCAVRLWFYYNYWGQGTQVTVSS,low polyreactivity
19,QVQNVDSGGGLVQAGGSLRLSCPPSGISYRGYAMGWYRQAPGKERELVAAISVRGASTYYAASVKGRFTISRDNAKYTVYLPMNSLKPEDTAVYYCGATRPSWRYNYWGQGTEVTVSS,high polyreactivity
20,QVQPQESGVGLVQAGGSLRLSCAASGTIFAFQTMGWYRQAPGKERELVASITYGSSTNYADSVKGRFTISRDNAKNTVYLLMNRLKPEDTAVYYCAVPQAQYYYDYWGQGTQVTVSS,high polyreactivity
21,QVQPVESGGGLVQAGGSLRLSCAASGFIFSSYAMGWYRQAPGKERELVAAITSGGSTNYADSVKGRFTISRDNAKNTVYLQMNSMKPEDTAVYYCATVPGGSWFFHWWSTGGDDEYWGQGTQVTVSS,low polyreactivity
22,QVQPVESGGGLVQAGGSLRLSCAASGIIFISYDMGWYRQAPGKERELVARINWDGGSTYYADSVKGRFTISRDNAKNTVYLQMNSLKPEDTAVYYCAAGFVGTNYPLQGFSYEYWGQGTQVTVSS,low polyreactivity

row,Sequence,polyreactivity (PSR sort gate)
1,QVQPVESGGGLVQAGGSLRLSCDASGRIFYEYAMGRSRQAPGKERELVAISTSGGNTYYADSVKGRFTISRDNAKNTVYLQMKSLKPEDTEVYYCAKRGYRAYYWGQGTLVTVSS,high polyreactivity
2,QVQQLESGGGLVQAGGSLRLSSAASGTIFRISDMGSYRQAPGTEREFVAAITYGANTYYADSGKGRFTISRDNAKNTVYRQMNSLKPDDTAVYDCAVPPVKESILDYWGQGTQVTVSR,low polyreactivity
3,QVQQQESGGGLVQAGGSLRLSCAASGTIFQLTVMGRYRQASGKERELVASIDYGGNTNYADSVKGRFTISRDNAKNTVYLQMNSLKPEDTAVYYCEASSDSWTTHPYWGQGTQVTVSS,low polyreactivity
4,QVQQQESGGGLVQAGVSLRLSWAASGTIFQLTVMGRYRQAPGKEREVVASIDYGGNTNYADSVKGRFTISRDNAKNTVYRQMNSLKPEDTAVYYCAASSDSSTTHPYWGQGTHVTVSS,low polyreactivity
5,QVQRQESGGGLVQAGDSQRLSCAPSGNIFRFTDMGWYRQAPGQERELVAAINAGSTTYYADSVKGRFTISRDNAKNTVYLQMNSLKPEDTAVYYCAVYYLGSGTFGYWGQGAQVTVSS,high polyreactivity
6,QVQRVDSGGGLVQAGGSLRLSCAASGFTFAVYAMGWYRQSPGKERELVAAISRSGTRTYYADSVKGRFTISRDNAKNTVYLQMNSLKPEDTAVYYCAADKYRLGYDYWGQGTQLTVSS,low polyreactivity
7,QVQRVDSRGGLVQAGGSLRLSCAASGRIFRPNAMGWYRQAHGKQRELVAAITSNGGRTYYADSVKGRFTISRDNAKYTVYLQMNSLKPEDTAVYYCNAAPFRSGDGYWGQGTQVTVSS,high polyreactivity
8,QVQRVESAGGLVQAGGSLRLSCAASGSTFLYNAMGWYRQAPGKERELVAAISWSGGSTYYADSVKGRFTISRDNAKNTVYLQMNSLKPEDTAVYYCAKPRSWGYNWGQGTQVTVSS,high polyreactivity
9,QVQRVESGGALVQAGGSLRLSCAASGRIFGGYAMGWYRQAPGKERELVAAISSRGGSTYYADSVKGRFTISRDNAKNTVYLQMNSLKPEDTAVYYCAADGRVKGWGQGTQVTVSS,high polyreactivity
10,QVQRVESGGALVQAGGSLRLSCAASGSTFYAYAMGWYRPAPGKERELVAAITYRDGRTYYADSVKGRFTISRDNAKNTVYLQMNRLKQEDTAVYYCARKTGFTVRRYDYWGHGTQVTVSS,high polyreactivity
11,QVQRVESGGGFVQAGGSLRLSSAASGFTFGAYAMGWYRQAPGKEMELVASISWSGGSTYYADSVKGRFTISRVNAKNTVYLQMNSLKPEDTAVYYCNKDFVYPDDDGLFDYWGQGTQVTVSS,low polyreactivity
12,QVQRVESGGGLFQAGGSLRLSCAASGITFRYYNMGWYRQAPGKERELVAAISSSGGSTYYADSVKGRFTISRDNAKNTVYLQMNSLKPEDTAVYYCAAESKYSTSSPRRDYWGQGTQVTVSS,high polyreactivity
13,QVQRVESGGGLVKAGGRLRLSSAASGGTFKRYTMGWYRQAPGKETELVARIHYRTGSTYYADSVKGRFTISRDNAKNTVYLQMNSLKPEDTAVYYCAAREWYGFAFDYWGQGTQVTVSS,high polyreactivity
14,QVQRVESGGGLVQAAGSLRLSCAASGRTFIYYAKGWYRHEPGKERELVAGISRNGGRTYYADSVKGRFTISRDNAKNTVYLQMNSLKPEDTAVYYCNAYPPSRHDYCGQGTQVTVSS,high polyreactivity
15,QVQRVESGGGLVQAGASLRLSCAASGSTFDPYAKGWYRQAPGKERELVAAISGRGGSTYYADSVKGRFTISRDNAKNTLYLQMNSLKPEDTADYYCNAEGEYRRDRYDYWGQGTQVTVSS,low polyreactivity
16,QVQRVESGGGLVQAGASLRLSCSASGRTFSRYAMGWYRQAPGKERELVAAIRGNSGNTYYADSVKGRFTISRDNAKNTVYLQMNSLKPEDTAVYYCAKPFNIWGQGTQVTVSS,high polyreactivity
17,QVQRVESGGGLVQAGGRLRLTCAASARIIRWYAMGWNRQAPGKERELVAAISGSGGSTYYADSVKGRFTISRDNAKNTVYLQMNSLKPEDTAVYYCAKDRDPVRAHDCWGQGTQVTVSS,high polyreactivity
18,QVQRVESGGGLVQAGGSLRLSCAASGFIFWRYAMGWYRQAPGKERELVATITSSGGTTHYADSVKGRFTISRDNAKNTVYLQMNSLKPEDTAVYYCAKALVVQYGRYTGHPYDYWGQGTQVTVSS,high polyreactivity
19,QVQRVESGGGLVQAGGSLRLSCAASGFTFESYAMGWYRQAHGKERELVAAITWDGGSTYYADSVKGRFTISRDNAKNTVYLQMNSLKPEDTAVYDCAADFGTISIDVYSWMDYWGQGTQVTGSS,low polyreactivity
20,QVQRVESGGGLVQAGGSLRLSCAASGFTFRWYAMGWYRQAPGKEREMVAAISRSGASTYYADSVKGRFTISRDNAKNTVYLQMNSLKPEDTAVYYCAVLWHGRRPLYKLRTGPEYDYWGQGTQVTVSS,high polyreactivity
21,QVQRVESGGGLVQAGGSLRLSCAASGFTFVPYALGWYRPAPGQERELVAAISGSGGSTYYADSVKGRFTISRDNEKNTVYLQMNSLKPEDTAVYYCNADRRWAYYWGQGTQVTVSS,high polyreactivity
